# Target: NavMs prokaryotic sodium channel, wild type, full-length construct (Magnetococcus marinus (Magnetococcus sp. strain MC-1)) (UniProt A0L5S6)
# Test: crystal structure; sitting drop, 0.05 M NaCl, 0.1 M MES pH 6.5, 37.8% v/v PEG 400, 4% ethylene glycol; protein purified in HEGA-10; molecular replacement with NavAb (PDB 3RVY)
substance,measurement,value
"NavMs prokaryotic sodium channel, wild type, full-length construct (from UniProt A0L5S6 1-274) (natural protein)",stoichiometry N,4

# Source: article PMC5316852
